In article PMC11192315 (PLOS Pathogens, 2024):
Changes are numbered by the printed parent chain. Names may count otherwise.

B1: JM-1A N59F mutant (antibody, V domains shown)
VH: QVQLQQSGPGLVKPSGTLSLTCAVSGASISSGDWWSWVRQSPGRGLEWIGGIFHSGTTFYSPSLKSRVTMSVDQPKNQFSLHLTSVTAADTAVYYCARMRGIFDYWGQGTLVTVSS
VL: DIQLTQSPSSLSVSVGDRVTITCRASQAISNSLAWYQQKPGKAPKLLLYAASTLESGVPSRFSGSGSGTDFTLTISSLQPEDFATYYCQHYYSTPFFGGGTKVEIK
B2: JM-1A-G32F (antibody, V domains shown)
VH: B1 VH with G32F, F59N
VL: B1 VL

Legend:
[1] = biological target: RBD of SARS-CoV-2 Omicron BA.1 (SARS-CoV-2 Omicron BA.1, E484 to A484 | Q493R | Q498R | N501Y); test: cell-based or functional assay
[2] = biological target: RBD of SARS-CoV-2 Omicron BA.2 (SARS-CoV-2 Omicron BA.2, D405N | R408S | E484 to A484 | Q493R); test: cell-based or functional assay

Binder	IC50, neutralisation of pseudotyped lentivirus with Omicron BA.1 spike [1] [µg/mL]	IC50, neutralisation of pseudotyped lentivirus with Omicron BA.2 spike [2] [µg/mL]
B1	0.018	0.011
B2	0.019	0.03
